Reference: US20260242488A1 (BIOTHEUS, published 2026)
Numbering of substitutions follows the chain as printed.

B1: anti-c-Met single-arm antibody 23 (antibody, human IgG1, kappa, L234A L235A)
heavy: not shown
light: DIVMTQSPSSLSASVGDRVTITCRASQSFSDYLNWYRQKPGKAPKLLLFAASSLQSGVPSRFSGSGSGTDFTLTISSLQPEDFATYYCQQSYSPPYTFGQGTKLEIKRTVAAPSVFIFPPSDEQLKSGTASVVCLLNNFYPREAKVQWKVDNALQSGNSQESVTEQDSKDSTYSLSSTLTLSKADYEKHKVYACEVTHQGLSSPVTKSFNRGEC
chain: not shown
notes: made in Expi-CHO
B2: anti-c-Met single-arm antibody 22 (antibody, human IgG1, kappa, L234A L235A)
heavy: not shown
light: DIVMTQSPSSVSASVGDRVTITCRASQGISSWLAWYQQKPGKAPKLLIYAASSLQSGVPSKFSGSGSGTEFTLTISSLQPEDFATYFCQQAYGFPLTFGGGTKVEIKRTVAAPSVFIFPPSDEQLKSGTASVVCLLNNFYPREAKVQWKVDNALQSGNSQESVTEQDSKDSTYSLSSTLTLSKADYEKHKVYACEVTHQGLSSPVTKSFNRGEC
chain: not shown
notes: made in Expi-CHO
B3: anti-c-Met single-arm antibody 187 (antibody, human IgG1, kappa, L234A L235A)
heavy: not shown
light: B2 light with K45N, S53N, Q55P, K61R, E70V, F87Y, A91S, Y92N, G93S
chain: not shown
notes: made in Expi-CHO
B4: anti-c-Met single-arm antibody 74 (antibody, human IgG1, kappa, L234A L235A)
heavy: not shown
light: B2 light with S30N, K45N, K61R, S65R, E70D, T72S, Q79H, F87Y, Y92K
chain: not shown
notes: made in Expi-CHO
B5: anti-c-Met single-arm antibody 136 (antibody, human IgG1, kappa, L234A L235A)
heavy: not shown
light: B2 light with A51V, K61R, E70D, Y92N, G93S
chain: not shown
notes: made in Expi-CHO
B6: anti-c-Met single-arm antibody 223 (antibody, human IgG1, kappa, L234A L235A)
heavy: not shown
light: DIQLTQSPSSLSASVGDRVTITCRASQSIITYLNWYQQKPGKAPKLLIYAASSLQSGVPSRFSGSGSGTDFTLNISSLQPEDFATYYCQQANSLPYTFGQGTKVEIKRTVAAPSVFIFPPSDEQLKSGTASVVCLLNNFYPREAKVQWKVDNALQSGNSQESVTEQDSKDSTYSLSSTLTLSKADYEKHKVYACEVTHQGLSSPVTKSFNRGEC
chain: not shown
notes: made in Expi-CHO
B7: anti-c-Met single-arm antibody 221 (antibody, human IgG1, kappa, L234A L235A)
heavy: not shown
light: EIVLTQSPGTLSLSPGERATLSCRASQSVSSSYLAWYQQKPGQAPRLLIYGPSSRATGIPDRFSGSGSGTDFTLTISSLQPADFASYYCQQSYITPYTFGQGTKVEIKRTVAAPSVFIFPPSDEQLKSGTASVVCLLNNFYPREAKVQWKVDNALQSGNSQESVTEQDSKDSTYSLSSTLTLSKADYEKHKVYACEVTHQGLSSPVTKSFNRGEC
chain: not shown
notes: made in Expi-CHO

target: monkey c-Met (recombinant protein) (monkey); test: BLI (ForteBio), antibody on AHQ sensor, monkey c-Met in solution, 1:1 model

| Kd [nM] | koff [s⁻¹] | kon [M⁻¹ s⁻¹] | Binder |
| --- | --- | --- | --- |
| 26.5 | 0.00151 | 56900 | B1 |
| 19 | 0.00259 | 136000 | B2 |
| 2.92 | 0.000947 | 324000 | B3 |
| 9.7 | 0.0026 | 269000 | B4 |
| 1.16 | 0.000426 | 369000 | B5 |
| 16.2 | 0.00109 | 67300 | B6 |
| 63.8 | 0.00192 | 30100 | B7 |
